Reference: patent US20110311499A1 (University of Washington, published 2011)

Experiments:
[1] = target: T1, Tse1-His6 (purified Tse1, PA1844, with C-terminal hexahistidine tag) (Pseudomonas aeruginosa PAO1, UniProt Q9I2Q1 1-154); assay: co-immunoprecipitation (FIG. 17a)
T1 construct: not shown: C-terminal hexahistidine tag (six His) from pET29b+
T1 sequence: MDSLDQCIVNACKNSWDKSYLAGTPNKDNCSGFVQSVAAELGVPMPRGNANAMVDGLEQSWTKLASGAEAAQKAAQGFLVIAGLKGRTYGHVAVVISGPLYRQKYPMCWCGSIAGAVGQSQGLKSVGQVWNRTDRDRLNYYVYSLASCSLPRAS

[2] = target: T2, Tse3-His6 (purified Tse3, PA3484, with C-terminal hexahistidine tag) (Pseudomonas aeruginosa PAO1, UniProt Q9HYC5 1-408); assay: co-immunoprecipitation (FIG. 17a)
T2 construct: not shown: C-terminal hexahistidine tag (six His) from pET29b+
T2 sequence: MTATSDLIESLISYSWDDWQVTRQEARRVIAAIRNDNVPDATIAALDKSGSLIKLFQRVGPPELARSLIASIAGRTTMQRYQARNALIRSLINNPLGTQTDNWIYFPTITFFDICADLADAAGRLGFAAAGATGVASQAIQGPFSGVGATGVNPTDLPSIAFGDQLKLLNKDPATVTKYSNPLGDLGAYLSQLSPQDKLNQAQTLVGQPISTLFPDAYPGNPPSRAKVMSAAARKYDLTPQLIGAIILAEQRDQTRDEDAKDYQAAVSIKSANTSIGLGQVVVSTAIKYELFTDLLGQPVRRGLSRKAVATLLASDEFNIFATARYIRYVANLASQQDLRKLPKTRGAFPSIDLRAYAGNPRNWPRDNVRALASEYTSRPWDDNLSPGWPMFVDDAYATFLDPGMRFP

| Binder | binding result [1] | binding result [2] |
| --- | --- | --- |
| Tsi1-V (type VI secretion immunity protein 1 fused to the VSV-G epitope) (other) ADCTFTQLEIVPQFGSPNMFGGEDEHVRVMFSNEDPNDDNPDAFPEPPVYLADRDSGNDCRIEDGGIWSRGGVFLSQDGRRVLMHEFSGSSAELVSYDSATCKVVHREDISGQRWAVDKDGLRLGQKCSGESVDSCAKIVKRSLAPFCQTAKK | binds |  |
| Tsi3-V (type VI secretion immunity protein 3 fused to the VSV-G epitope) (other) CTAESGVDFDKTLTHPNGLVVERPVGFDARRSAEGFRFDEGGKLRNPRQLEVQRQDAPPPPDLASRRLGDGEARYKVEEDDGGSAGSEYRLWAAKPAGARWIVVSASEQSEDGEPTFALAWALLERARLQ |  | binds |
